Laboratory results reported in patent US20250011428A1.
Substitutions are numbered along the chain they refer to.

B1: CD3_2 (antibody, human IgG1, lambda)
heavy: EVQLVESGGGLVQPGGSLKLSCAASGFTFNTYAMNWVRQASGKGLEWVGRIRSKYNNYATYYADSVKDRFTISRDDSKSTLYLQMNSLKTEDTAVYYCVRHGNFGNSYVSWFAYWGQGTLVTVSSASTKGPSVFPLAPSSKSTSGGTAALGCLVKDYFPEPVTVSWNSGALTSGVHTFPAVLQSSGLYSLSSVVTVPSSSLGTQTYICNVNHKPSNTKVDKRVEPKSCDKTHTCPPCPAPELCCHPSVFLFPPKPKDTLMISRTPEVTCVVVGLRHEDPEVKFNWYVDGVEVHNAKTKPREEQYCGCYRVVSVLTVLHQDWLNGKEYKCKVSNKALPAPIEKTISKAKGQPREPQVYTLPPSRDELTKNQVSLTCLVKGFYPSDIAVEWESNGQPENNYKTTPPVLDSDGSFFLYSKLTVDKSRWQQGNVFSCSVMHEALHNHYTQKSLSLSPGK
light: QAVVTQEPSLTVSPGGTVTLTCRSSTGAVTTSNYANWVQQKPGQAPRGLIGGTNKRAPWTPARFSGSLLGDKAALTLSGAQPEDEAEYFCALWYSNLWVFGGGTKLTVLGQPKAAPSVTLFPPSSEELQANKATLVCLISDFYPGAVTVAWKADSSPVKAGVETTTPSKQSNNKYAASSYLSLTPEQWKSHRSYSCQVTHEGSTVEKTVAPTECS
B2: CD3_3 (antibody, human IgG1, lambda)
heavy: B1 heavy with V272T, H276D
light: B1 light
B3: CD3_4 (antibody, human IgG1, lambda)
heavy: B1 heavy with G273D, L274V, R275S
light: B1 light
B4: IgG4_CD3_6_YTE (antibody)
heavy: EVQLVESGGGLVQPGGSLKLSCAASGFTFNTYAMNWVRQASGKGLEWVGRIRSKYNNYATYYADSVKDRFTISRDDSKSTLYLQMNSLKTEDTAVYYCVRHGNFGNSYVSWFAYWGQGTLVTVSSASTKGPSVFPLAPCSRSTSESTAALGCLVKDYFPEPVTVSWNSGALTSGVHTFPAVLQSSGLYSLSSVVTVPSSSLGTKTYTCNVDHKPSNTKVDKRVESKYGPPCPSCPAPEFCCGPSVFLFPPKPKDTLYITREPEVTCVVVDVSQEDPEVQFNWYVDGVEVHNAKTKPREEQFNSTYRVVSVLTVLHQDWLNGKEYKCKVSNKGLPSSIEKTISKAKGQPREPQVYTLPPSQEEMTKNQVSLTCLVKGFYPSDIAVEWESNGQPENNYKTTPPVLDSDGSFFLYSRLTVDKSRWQEGNVFSCSVMHEALHNHYTQKSLSLSL
light: B1 light
B5: IgG4_CD3_6 (antibody)
heavy: B4 heavy with Y257M, T259S, E261T
light: B1 light
B6: IgG4_CD3_S228P_YTE (antibody)
heavy: B4 heavy with S233P, C240L, C241G
light: B1 light
B7: IgG4_CD3_9_YTE (antibody)
heavy: B4 heavy with C241G
light: B1 light
B8: IgG4_CD3_8 (antibody)
heavy: B4 heavy with C240L, Y257M, T259S, E261T
light: B1 light
B9: IgG4_CD3_8_YTE (antibody)
heavy: B4 heavy with C240L
light: B1 light

Target: hC1q (human) (UniProt P02745)
Assay: SPR Biacore T200; IgG amine-coupled on CM5, hC1q as analyte; response normalized to parental (=100)

Sequence of hC1q (human) (P02745 23-245 limits assumed, chain 1 of 3): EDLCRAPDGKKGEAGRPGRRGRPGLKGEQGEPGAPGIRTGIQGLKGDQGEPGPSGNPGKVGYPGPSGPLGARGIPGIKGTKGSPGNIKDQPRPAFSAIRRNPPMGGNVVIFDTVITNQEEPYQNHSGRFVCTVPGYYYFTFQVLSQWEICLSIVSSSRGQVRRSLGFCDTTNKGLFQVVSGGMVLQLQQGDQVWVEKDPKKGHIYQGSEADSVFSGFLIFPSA
Sequence of hC1q (human) (P02746 28-253 limits assumed, chain 2 of 3, further chain): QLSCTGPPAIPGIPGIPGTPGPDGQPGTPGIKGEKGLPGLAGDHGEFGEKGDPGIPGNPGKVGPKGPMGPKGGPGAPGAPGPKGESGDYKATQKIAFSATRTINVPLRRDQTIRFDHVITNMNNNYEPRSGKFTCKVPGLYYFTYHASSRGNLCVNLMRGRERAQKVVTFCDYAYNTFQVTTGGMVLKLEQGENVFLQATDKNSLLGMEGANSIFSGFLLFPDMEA
Sequence of hC1q (human) (P02747 29-245 limits assumed, chain 3 of 3, further chain): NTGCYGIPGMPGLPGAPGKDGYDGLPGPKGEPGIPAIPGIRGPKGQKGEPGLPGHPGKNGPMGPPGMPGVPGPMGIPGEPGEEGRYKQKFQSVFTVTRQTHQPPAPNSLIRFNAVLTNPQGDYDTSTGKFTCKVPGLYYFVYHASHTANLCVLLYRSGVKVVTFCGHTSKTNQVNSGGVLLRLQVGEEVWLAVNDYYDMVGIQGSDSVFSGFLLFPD

Maximum response at 20 nM hC1q (RU) | Binder
7 | B1
7 | B2
9 | B3

Target: Gamma receptors FcγRI, FcγRII, and FcγRIII expressed on THP-1 cells
Assay: cell-based or functional assay

Maximum response in RGA assay (LU) | Binder
25500 | B1
7910 | B4
23200 | B2
12000 | B5
34900 | B6
5610 | B7
24900 | B3
7040 | B8
6450 | B9
